Measured values published in patent US20190255310A1, “KIT FOR IN SITU DELIVERY OF A COMPOUND OF INTEREST” (Defymed, priority 2016, published 2019).

Test system: diabetic rats
Assay: Insulin delivery through catheter and implanted pocket in diabetic rats, plasmatic glycaemia
Format: in vivo, rat
Procedure: Rapid Insulin was injected through a catheter linked to a pocket as disclosed in the examples of WO 2015/086550 (three layer, including one of non-woven polymer).
The pocket was implanted in the intraperitoneal cavity of rats.

Substance: insulin
- diffusion of insulin out of the device (inferred from glycaemia kinetics, pocket implanted intraperitoneally): instant diffusion
- plasmatic glycaemia (insulin injected through catheter linked to pocket implanted in the intraperitoneal cavity (FIG. 2, circles)): rapid decrease of plasmatic glycaemia
